Test results reported in the supplement of paper PMC7877785.
± gives the uncertainty stated by the source.

Test: self-splicing fitness, log relative to wild type (ln ratio); higher = more splicing; Tetrahymena group I intron in knt gene, E. coli kanamycin selection, DiMSum; sequences stand for … in CUCUCU…GGAGGGAAAAGUUAUCAGGCAUGCACCUGGUAGCUAGUCUUUAAACCAAUAGAUUGCAUCGGUUUAAAAGGCAAGACCGUCAAAUUGCGGGAAAGGGGUCAACAGCCGUUCAGUACCAAGUCUCAGGGGAAACUUUGAGAUGGCCUUGCAAAGGGUAUGGUAAUAAGCUGACGGACAUGGUCCUAACCACGCAGCCAAGUCCUAAGUCAACAGAUCUUCUGUUGAUAUGGAUGCAGUUCACAGACUAAAUGUCGGUCGGGGAAGAUGUAUUCUUCUCAUAAGAUAUAGUCGGACCUCUCCUUAAUGGGAGCUAGCGGAUGAAGUGAUGCAACACUGGAGCCGCUGGGAACUAAUUUGUAUGCGAAAGUAUAUUGAUUAGUUUUGGAGUACUCGUGGUCG
Procedure, shortened: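 A randomised library covering all eight P1ex-region intron nucleotides was built with the intron in the knt kanamycin-resistance gene on pET-22b(+) and held in E. coli BL21(DE3). Cells were grown overnight at 37°C or 30°C on LB agar, with or without 25 μg/mL kanamycin, plus 100 μg/mL carbenicillin, 50 μM IPTG and 0.2% rhamnose, and pooled colonies were amplicon-sequenced on an Illumina HiSeq 2500. DiMSum fitness is the error-weighted combination of wild-type-normalised replicate fold changes, kanamycin versus none.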

## CCAGAGCAAUAUUACGUUAU
30 °C
  self-splicing fitness (ln): -3.68 ± 0.24
37 °C
  self-splicing fitness (ln): -2.2 ± 0.2

## CCAGAGCAAUAUUACGUUGG
30 °C
  self-splicing fitness (ln): -3.93 ± 0.23
37 °C
  self-splicing fitness (ln): -2.57 ± 0.23

## CCAUAGCAAUAUUACGGAAA
30 °C
  self-splicing fitness (ln): -2.94 ± 0.41
37 °C
  self-splicing fitness (ln): -2.36 ± 0.34

## CCAUAGCAAUAUUACGGAGG
30 °C
  self-splicing fitness (ln): -3.57 ± 0.21
37 °C
  self-splicing fitness (ln): -0.997 ± 0.15

## CCAUAGCAAUAUUACGGCGG
30 °C
  self-splicing fitness (ln): -1.95 ± 0.13
37 °C
  self-splicing fitness (ln): -1.6 ± 0.18

## CCAUAGCAAUAUUACGGGCC
37 °C
  self-splicing fitness (ln): -1.32 ± 0.23

## CCAUAGCAAUAUUACGGUAG
30 °C
  self-splicing fitness (ln): -2.01 ± 0.1
37 °C
  self-splicing fitness (ln): -0.787 ± 0.11

## CCAUAGCAAUAUUACGGUGA
30 °C
  self-splicing fitness (ln): -1.18 ± 0.11
37 °C
  self-splicing fitness (ln): -1.74 ± 0.12

## CCAUAGCAAUAUUACGUCGU
30 °C
  self-splicing fitness (ln): -2.4 ± 0.15
37 °C
  self-splicing fitness (ln): -2.82 ± 0.23

## CCAUAGCAAUAUUACGUUAG
30 °C
  self-splicing fitness (ln): -3.33 ± 0.13
37 °C
  self-splicing fitness (ln): -2.01 ± 0.13

## CCAUAGCAAUAUUACGUUCA
30 °C
  self-splicing fitness (ln): -3.17 ± 0.26
37 °C
  self-splicing fitness (ln): -2.6 ± 0.44

## CCAUAGCAAUAUUACGUUGU
30 °C
  self-splicing fitness (ln): -4.79 ± 0.41
37 °C
  self-splicing fitness (ln): -2.66 ± 0.19

## CCCAAGCAAUAUUACGAAAG
30 °C
  self-splicing fitness (ln): -3.49 ± 0.17
37 °C
  self-splicing fitness (ln): -3.39 ± 0.31

## CCCAAGCAAUAUUACGAACA
30 °C
  self-splicing fitness (ln): -3.02 ± 0.27
37 °C
  self-splicing fitness (ln): -3.04 ± 0.26

## CCCAAGCAAUAUUACGAACC
37 °C
  self-splicing fitness (ln): -2.59 ± 0.35

## CCCAAGCAAUAUUACGAACU
30 °C
  self-splicing fitness (ln): -3.54 ± 0.34
37 °C
  self-splicing fitness (ln): -2.91 ± 0.38

## CCCAAGCAAUAUUACGACUG
30 °C
  self-splicing fitness (ln): -3.41 ± 0.14
37 °C
  self-splicing fitness (ln): -3.49 ± 0.23

## CCCAAGCAAUAUUACGAGCA
30 °C
  self-splicing fitness (ln): -3.01 ± 0.24
37 °C
  self-splicing fitness (ln): -2.95 ± 0.25

## CCCAAGCAAUAUUACGAGGC
30 °C
  self-splicing fitness (ln): -4.03 ± 0.15
37 °C
  self-splicing fitness (ln): -3.25 ± 0.18

## CCCAAGCAAUAUUACGAUAC
30 °C
  self-splicing fitness (ln): -3.63 ± 0.46

## CCCAAGCAAUAUUACGAUAU
30 °C
  self-splicing fitness (ln): -3.29 ± 0.19
37 °C
  self-splicing fitness (ln): -3.25 ± 0.15

## CCCAAGCAAUAUUACGAUUA
30 °C
  self-splicing fitness (ln): -2.97 ± 0.19
37 °C
  self-splicing fitness (ln): -2.9 ± 0.27

## CCCAAGCAAUAUUACGCGAC
30 °C
  self-splicing fitness (ln): -3.2 ± 0.21
37 °C
  self-splicing fitness (ln): -2.29 ± 0.19

## CCCAAGCAAUAUUACGCGAG
30 °C
  self-splicing fitness (ln): -3.22 ± 0.24
37 °C
  self-splicing fitness (ln): -2.58 ± 0.2

## CCCAAGCAAUAUUACGCGGC
30 °C
  self-splicing fitness (ln): -2.8 ± 0.2
37 °C
  self-splicing fitness (ln): -2.38 ± 0.23

## CCCAAGCAAUAUUACGCGUC
30 °C
  self-splicing fitness (ln): -3.06 ± 0.16
37 °C
  self-splicing fitness (ln): -2.6 ± 0.29

## CCCAAGCAAUAUUACGCGUU
30 °C
  self-splicing fitness (ln): -4.28 ± 0.18
37 °C
  self-splicing fitness (ln): -1.74 ± 0.12

## CCCAAGCAAUAUUACGGAAC
30 °C
  self-splicing fitness (ln): -3.54 ± 0.21
37 °C
  self-splicing fitness (ln): -2.62 ± 0.25

## CCCAAGCAAUAUUACGGGAA
30 °C
  self-splicing fitness (ln): -2.75 ± 0.17
37 °C
  self-splicing fitness (ln): -1.96 ± 0.16

## CCCAAGCAAUAUUACGGGCU
30 °C
  self-splicing fitness (ln): -3.61 ± 0.18
37 °C
  self-splicing fitness (ln): -2.31 ± 0.17

## CCCAAGCAAUAUUACGGUAA
30 °C
  self-splicing fitness (ln): -2.25 ± 0.14
37 °C
  self-splicing fitness (ln): -1.4 ± 0.16

## CCCAAGCAAUAUUACGUGCU
30 °C
  self-splicing fitness (ln): -2.08 ± 0.11
37 °C
  self-splicing fitness (ln): -2.6 ± 0.2

## CCCAAGCAAUAUUACGUGGC
30 °C
  self-splicing fitness (ln): -3.5 ± 0.13
37 °C
  self-splicing fitness (ln): -2.8 ± 0.18

## CCCCAGCAAUAUUACGAACA
30 °C
  self-splicing fitness (ln): -2.51 ± 0.17
37 °C
  self-splicing fitness (ln): -2.85 ± 0.28

## CCCCAGCAAUAUUACGACUA
30 °C
  self-splicing fitness (ln): -2.66 ± 0.17
37 °C
  self-splicing fitness (ln): -2.93 ± 0.28

## CCCCAGCAAUAUUACGAGCA
30 °C
  self-splicing fitness (ln): -1.5 ± 0.14
37 °C
  self-splicing fitness (ln): -3.13 ± 0.34

## CCCCAGCAAUAUUACGCCCG
30 °C
  self-splicing fitness (ln): -1.79 ± 0.17
37 °C
  self-splicing fitness (ln): -2.57 ± 0.28

## CCCCAGCAAUAUUACGCGAA
30 °C
  self-splicing fitness (ln): -4.21 ± 0.15
37 °C
  self-splicing fitness (ln): -1.69 ± 0.14

## CCCCAGCAAUAUUACGCUGG
30 °C
  self-splicing fitness (ln): -2.76 ± 0.11
37 °C
  self-splicing fitness (ln): -1.73 ± 0.14

## CCCCAGCAAUAUUACGGGCG
30 °C
  self-splicing fitness (ln): -3.69 ± 0.15
37 °C
  self-splicing fitness (ln): -1.94 ± 0.11

## CCCCAGCAAUAUUACGGUAU
30 °C
  self-splicing fitness (ln): -3.72 ± 0.13
37 °C
  self-splicing fitness (ln): -2.88 ± 0.2

## CCCCAGCAAUAUUACGGUCA
30 °C
  self-splicing fitness (ln): -2.71 ± 0.16
37 °C
  self-splicing fitness (ln): -0.931 ± 0.13

## CCCCAGCAAUAUUACGUACC
30 °C
  self-splicing fitness (ln): -4.07 ± 0.18
37 °C
  self-splicing fitness (ln): -3.36 ± 0.35

## CCCCAGCAAUAUUACGUAGA
30 °C
  self-splicing fitness (ln): -2.95 ± 0.12
37 °C
  self-splicing fitness (ln): -2.7 ± 0.18

## CCCCAGCAAUAUUACGUCGA
30 °C
  self-splicing fitness (ln): -4.09 ± 0.23
37 °C
  self-splicing fitness (ln): -2.27 ± 0.15

## CCCCAGCAAUAUUACGUUCA
30 °C
  self-splicing fitness (ln): -2.97 ± 0.12
37 °C
  self-splicing fitness (ln): -2.84 ± 0.2

## CCCGAGCAAUAUUACGAACA
30 °C
  self-splicing fitness (ln): -2.93 ± 0.3
37 °C
  self-splicing fitness (ln): -2.51 ± 0.35

## CCCGAGCAAUAUUACGACAU
30 °C
  self-splicing fitness (ln): -3.865 ± 0.026
37 °C
  self-splicing fitness (ln): -2.88 ± 0.041

## CCCGAGCAAUAUUACGAUAC
30 °C
  self-splicing fitness (ln): -2.29 ± 0.27
37 °C
  self-splicing fitness (ln): -1.57 ± 0.36
